Data as given in patent US12194057B2, “NXTAR-derived oligonucleotides and uses thereof” (Washington University, priority 2020, dated 2025).

Key:
AR = assay: qRT-PCR of AR and AR target gene expression in prostate cancer cells; assay type: cell-based, human
Description: (§1) NXTAR-N5 oligonucleotide was synthesized by IDT, and the oligonucleotide sequence is provided in TABLE 1 and FIG. 7C (* represents phosphorothioate bond modifications to avoid degradation by exonucleases). Equal numbers of VCaP and 22Rv1 cells were transfected with NXTAR-N5 or globin-derived oligonucleotide using X-tremeGENE360 (Sigma-Aldrich, Cat #08724121001), and the number of live cells was counted 96 h post-transfection using trypan blue exclusion method (Sigma, Cat #T8154). RNA was prepared from these cells, and qRT-PCR [SYBR PremixEx Taq II (Tli RNase H Plus)ROX, Clontech Takara, Cat #RR82LR] for AR and AR-V7 was performed as described earlier (see e.g., Mahajan et al. (2017) Cancer Cell).
Cells were transfected, infected or treated [(R)-9b; EPZ6438, TargetMol, Cat #T1788] accordingly. RNA was used for cDNA preparation using High-Capacity cDNA Reverse Transcription Kit (Thermo Scientific Cat #4368814). Resulting cDNA was then analyzed by qPCR using an Applied Biosystems 7900 Real-Time PCR System (Thermo Scientific) and SYBR Green PCR Master Mix [SYBR PremixEx Taq II (Tli RNase H Plus) ROX, Clontech Takara, Cat #RR82LR] according to the manufacturers' instructions. Dissociation curves were generated for each plate to verify the integrity of the primers. The relative expression of RNAs was calculated using the comparative Ct or standard curve method. 18S rRNA or actin were used as internal controls.

purified EZH2 = target: T1, purified EZH2 (Homo sapiens, UniProt Q15910); assay: EZH2 pull-down assay with purified 6xHis-tagged EZH2; assay type: binding; conditions: immobilized on streptavidin beads
T1 construct: made in house
Description: 1 mg of lysate prepared from HEK293 cells transfected with 6λHis-tagged-EZH2 plasmid was incubated with Ni-NTA agarose beads (Qiagene) overnight at 4° C. Beads were washed three times using wash buffer (20 mM Tris/HCl, 200 mM NaCl, 5 mM imidazole; pH 7.5) and purified EZH2 was eluted using elution buffer (20 mM Tris/HCl, 200 mM NaCl, 200 mM imidazole; pH 7.5).
LncRNA-Protein binding study was performed as described earlier (see e.g., Zhao, Wang, and Hu (2021) Methods Mol Bio). Briefly, 10 pmol Biotinylated NXTAR-N5 oligo or Biotinylated Globin oligos were diluted in 40 ul RNA structure buffer, heated at 90° C. for 2 min, immediately transferred onto ice for 2 min and then kept at RT for further 20 mins. 10 uM of purified EZH2 protein was added to these biotinylated oligos with 500 ul of NETN buffer and the tubes were placed at 4° C. for 2 hrs. Post washing with cold NETN buffer, streptavidin magnetic beads (60 ul) were added into prepared oligo-protein mix and incubated at 4° C. overnight. Beads were washed 3 times with NETN buffer, followed by western blot analysis. […]

EZH2 = target: T2, EZH2 (Homo sapiens, UniProt Q15910); assay: Pull-down from VCaP cell lysates with biotinylated oligos, immunoblotting for EZH2; assay type: binding; conditions: VCaP cells with retroviral expression of NXTAR
T2 construct: endogenous in cells; host or cells: VCaP cells (some retrovirally infected to over-express NXTAR lncRNA)
Description: The biotinylated oligonucleotides were incubated with lysates (2 h), and the lysates were incubated with streptavidin magnetic beads overnight. Beads attached to RNAs were divided equally and processed for either RNA isolation or western blotting. For RNA isolation, beads were washed three times and then separated using proteinase K treatment. RNA was then isolated and purified, and DNA was digested in the process. The real-time quantitative RT-PCR was performed on isolated RNA to check the efficiency of pull-down of NXTAR RNA. The remaining beads were heated at 80° C. for 5 min in loading buffer, followed by western blotting. The blots were probed with EZH2 (CST, 5246S; RRID:AB_10694683) antibody and Actin (SCBT, sc-47778; RRID:AB_2714189) was used as the loading control.
Biotin-labeled NXTAR-N5 (complementary to the AR promoter) and globin oligos were synthesized (IDT) (see e.g., TABLE 1). ChIRP was performed using lysate from formaldehyde-fixed VCaP cells and oligos that were immobilized to streptavidin beads, as described earlier (see e.g., Chu and Chang (2016) Methods Mol Bio). The amount of the chromatin DNA was determined by real-time PCR. For detection of NXTAR-N5/EZH2 binding, biotin-labeled NXTAR-N5 oligo and control globin oligo were incubated with VCaP cell lysates and were subjected to chromatin pull-down, followed by immunoblotting with EZH2 antibodies.

VCaP and 22Rv1 cells = assay: Proliferation assay, viable cells by trypan blue exclusion; assay type: cell-based, human
Description: as §1
The 22Rv1, VCaP, or LNCaP cells were retrovirally infected with control or NXTAR vectors and selected in puromycin medium containing 5% charcoal-stripped serum. Equal numbers of selected cells were seeded in 6-well plates followed by treatment with either (R)-9b, enzalutamide (Selleck Chemicals, Cat #S1250), or abiraterone (Selleck Chemicals, Cat #52246), and the number of viable cells was counted by trypan blue exclusion assay.

[1] = 22Rv1 and VCaP cells infected with retroviral NXTAR construct

T2 sequence (Q15910 whole entry): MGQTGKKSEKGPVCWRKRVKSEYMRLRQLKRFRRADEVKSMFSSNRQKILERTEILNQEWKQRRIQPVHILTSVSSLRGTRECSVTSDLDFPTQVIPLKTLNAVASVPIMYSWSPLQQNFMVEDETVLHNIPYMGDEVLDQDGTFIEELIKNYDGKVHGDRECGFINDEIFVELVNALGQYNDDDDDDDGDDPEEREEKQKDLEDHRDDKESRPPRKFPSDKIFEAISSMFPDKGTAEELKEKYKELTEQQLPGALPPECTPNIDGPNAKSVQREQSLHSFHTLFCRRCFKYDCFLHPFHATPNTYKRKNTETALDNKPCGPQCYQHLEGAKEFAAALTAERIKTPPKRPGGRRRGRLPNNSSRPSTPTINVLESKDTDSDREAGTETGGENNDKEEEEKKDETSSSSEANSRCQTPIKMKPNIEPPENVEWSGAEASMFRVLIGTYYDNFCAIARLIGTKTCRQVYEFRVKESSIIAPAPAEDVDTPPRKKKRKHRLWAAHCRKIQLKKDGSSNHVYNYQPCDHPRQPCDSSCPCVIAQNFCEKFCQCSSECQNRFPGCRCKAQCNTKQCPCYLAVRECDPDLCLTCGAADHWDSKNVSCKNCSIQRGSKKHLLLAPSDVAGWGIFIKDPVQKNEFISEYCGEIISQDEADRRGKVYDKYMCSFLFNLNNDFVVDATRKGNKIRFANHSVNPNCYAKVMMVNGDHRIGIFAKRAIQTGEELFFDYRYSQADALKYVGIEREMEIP
T2 sequence (O75530 whole entry partner): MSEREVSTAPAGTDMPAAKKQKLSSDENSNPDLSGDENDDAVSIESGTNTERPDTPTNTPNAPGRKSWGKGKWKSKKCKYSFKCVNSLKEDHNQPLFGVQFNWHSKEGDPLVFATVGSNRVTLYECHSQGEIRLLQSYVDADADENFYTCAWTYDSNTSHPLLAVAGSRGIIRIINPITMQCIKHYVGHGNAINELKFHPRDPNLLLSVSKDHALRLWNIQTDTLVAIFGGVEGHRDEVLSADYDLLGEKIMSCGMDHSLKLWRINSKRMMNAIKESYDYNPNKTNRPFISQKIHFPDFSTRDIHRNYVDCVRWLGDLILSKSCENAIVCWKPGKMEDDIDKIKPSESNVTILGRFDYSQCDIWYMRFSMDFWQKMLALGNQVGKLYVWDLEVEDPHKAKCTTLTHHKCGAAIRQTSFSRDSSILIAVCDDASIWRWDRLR
T2 sequence (Q15022 whole entry partner): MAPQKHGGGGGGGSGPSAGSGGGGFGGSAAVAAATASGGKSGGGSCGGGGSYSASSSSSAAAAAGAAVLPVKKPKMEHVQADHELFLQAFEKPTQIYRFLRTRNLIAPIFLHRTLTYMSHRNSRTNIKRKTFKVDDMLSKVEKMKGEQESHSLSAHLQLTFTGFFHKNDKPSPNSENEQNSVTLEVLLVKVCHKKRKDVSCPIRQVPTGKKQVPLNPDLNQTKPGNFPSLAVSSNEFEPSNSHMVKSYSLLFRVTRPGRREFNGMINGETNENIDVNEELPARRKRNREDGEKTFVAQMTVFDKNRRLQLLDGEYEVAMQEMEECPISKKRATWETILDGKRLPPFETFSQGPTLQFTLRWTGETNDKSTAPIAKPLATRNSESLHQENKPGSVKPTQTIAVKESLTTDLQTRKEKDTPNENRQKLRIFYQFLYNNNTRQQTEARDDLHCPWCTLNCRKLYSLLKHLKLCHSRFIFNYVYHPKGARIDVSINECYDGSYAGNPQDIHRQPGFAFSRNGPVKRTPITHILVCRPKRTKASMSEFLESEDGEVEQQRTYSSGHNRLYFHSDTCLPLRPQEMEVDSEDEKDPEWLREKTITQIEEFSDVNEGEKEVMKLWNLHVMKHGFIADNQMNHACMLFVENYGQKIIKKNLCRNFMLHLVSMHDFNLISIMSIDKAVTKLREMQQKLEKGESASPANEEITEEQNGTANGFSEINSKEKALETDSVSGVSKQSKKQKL
T2 sequence (Q09028 whole entry partner): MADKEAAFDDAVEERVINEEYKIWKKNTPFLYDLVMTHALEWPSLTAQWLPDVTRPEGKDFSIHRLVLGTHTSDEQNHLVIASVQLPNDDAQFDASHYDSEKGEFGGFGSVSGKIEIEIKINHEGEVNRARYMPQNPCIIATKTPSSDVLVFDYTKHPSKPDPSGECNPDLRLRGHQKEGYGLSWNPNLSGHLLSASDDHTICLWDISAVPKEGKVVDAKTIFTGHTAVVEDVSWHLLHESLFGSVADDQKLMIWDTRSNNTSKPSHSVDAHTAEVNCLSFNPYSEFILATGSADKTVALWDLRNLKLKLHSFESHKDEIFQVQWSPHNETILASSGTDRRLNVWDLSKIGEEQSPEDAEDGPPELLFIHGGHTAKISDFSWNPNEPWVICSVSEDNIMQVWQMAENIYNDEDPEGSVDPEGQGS
T1 sequence (Q15910 whole entry): as the sequence (Q15910 whole entry) above

B1: NXTAR: long non-coding RNA, 1476-nt transcript (SEQ ID NO: 58), expressed from retroviral or plasmid constructs (nucleic acid, listed as Homo sapiens)
chain: GGAAAAGGAAGGCTGCACAGAAGAACTGGCATTTGTGTTCTGCCTACAAAGCTGAAAAGGATTTCACCCAAATCAGGGAAGATCAGCCTTATGAGGTGGATATTATTGCCACAATAATTTTCCAGATGAAAAATGGAGGCCCAGAGATGTTAAGGAATTTGCCCAAGATCATGAAAAGACACTCTCCCCTATTGAGATGTCATGCAAGGATCAGTGCTGTGTGAAAATCCACATGAAGCAGGAAATGCAGGTGGTGGTGTCCAATCTGATTTCAAGATCTGAGAAGCTGTGCACTGCCTGAAAGGTATCTATTTAAGGTGTCACCAGACTCCTGCTCCACTCCTGCCCAAGGCCCAGCCCATCCAAGAGCAAAAGGCAAGTGGTGTTACAACCTTGGGATTTCCTGTATCTGCCCTCTTGCGGATAGCAGGACAGAGTCACAGCTGCATTAAATTCGCTTAAGACTTATTGAGACACTTCAACACTTCAACAACGACCTGTGAGATTAAGATTATTATTTTAAATTTACAGAAGGGGAAACTAAGAATTATAGACATGAAGTGACTCACCTATGACCACCTGGTGATAGAACCAGGACTAGAGCTCAGGTATGAAGATTTCTGGGGGAGTCCCTGAAAAAAAGGCTCCATATGGAATTACAATGTGGAAAAGGCCAAGGCCTCACCAACCCTTTTCTCTTCAACACCTGGATCCCTAAGTCCTTATTCGTAACCTCCTCTTTGGACAAGGTTTTGGTAGACAAAGCCAGAGCCTCTTGCACTGAGAAAGACAAATTCTCCTCTTGCAGTGAACCACAGGTAAATGCTCCAATAGAGAGTCCAAGCCAAACCTCCGGGTGTTATTCATGACCCAGGCAAGTCTGCTTTCTCATTCCCCCTATCTCTAGACCGTTTTCCATTTGGGCTTCCTTTTCTTCTTTTATCCTCAAAGAAACATGTTTCCTTCTAGTAGGTTTGGCTGCCACCACTAGGGTCCTGGCTACAACTGGCCCTCAGGTAACTCTCTCACCTCTGAGTTGGATAGTATCCTCTCTCGTCCCCATACACAAGTGTTTCTCTTCCCAGACACCTTCCTTACACAATTTCCCATTTCTTTCTCATCTCACCCTTGCTTTAATCAACATAGTTCTTTCCCCTGAGATTACTCTTCAGCCTTTCTTGTTGAAGCACTGCCCAGTGGTTCTCTTGGGATTTCCATTTCTCTCCCCTCAGCTCTCTTGGTACCAAATTCTGTAAGCTTCTCTGGTTTTTGGTTTCTCTTCCTTCTTTTCCTTCCAGGCAACATTTACTCAATCTAGGCTTGGATGATCAGGTACTTCTGCCAGCCTGCCCACTAGGGAACTCTGGGCTAGGAATATGTCTCAATGGCACCATTATATTTGGAAGGACGCTTCTGTATTTACACTGAACACACTAAAATACTAAACTTGAAGCCAAAATCCCCTCTCTGGCTCCA
With B1 the “AR mRNA level” value (AR; [1]) was “significant decrease in AR mRNA level”, the KLK3 expression (AR; [1]) was “significant loss of expression” and the TMPRSS2 expression (AR; [1]) was “significant loss of expression”. For the same molecule, the “AR and KLK3/PSA levels post-DHT-treatment” value (AR; LNCaP and 22Rv1 cells, DHT 10 nM overnight, NXTAR restoration) was “significantly compromised upon NXTAR restoration”, the AR levels (AR; VCaP cells, NXTAR overexpression (rescue experiment)) was “significant loss of AR levels” and the “binding to purified EZH2” value (purified EZH2) was “considerable binding”. The “EZH2 binding in RNA pull-down” value (EZH2) was “EZH2 could bind to NXTAR RNA”, the sensitivity to abiraterone (VCaP and 22Rv1 cells; 22Rv1 cells expressing NXTAR, 5 days) was “further sensitized them” and the “proliferation upon enzalutamide treatment” value (VCaP and 22Rv1 cells; VCaP and 22Rv1 cells expressing NXTAR) was “significantly compromised proliferation”. The proliferation (VCaP and 22Rv1 cells; VCaP and 22Rv1 cells, NXTAR expression vs pBABE vector) was “severe loss of proliferation”.
